Paper PMC8111768 (Immunity, 2021)

B1: recombinant murine FcγRIIb (receptor)
chain: THDLPKAVVKLEPPWIQVLKEDTVTLTCEGTHNPGNSSTQWFHNGRSIRSQVQASYTFKATVNDSGEYRCQMEQTRLSDPVDLGVISDWLLLQTPQLVFLEGETITLRCHSWRNKLLNRISFFHNEKSVRYHHYSSNFSIPKANHSHSGDYYCKGSLGRTLHQSKPVTITVQGPKSSRSLP
modifications: soluble ectodomain by convention (UniProt topology); tag not stated
B2: recombinant murine FcγRIV (receptor)
chain: GLQKAVVNLDPKWVRVLEEDSVTLRCQGTFSPEDNSIKWFHNESLIPHQDANYVIQSARVKDSGMYRCQTALSTISDPVQLEVHMGWLLLQTTKWLFQEGDPIHLRCHSWQNRPVRKVTYLQNGKGKKYFHENSELLIPKATHNDSGSYFCRGLIGHNNKSSASFRISLGDPGSPSMFPPWHQ
modifications: soluble ectodomain by convention (UniProt topology); tag not stated
B3: recombinant murine FcγRIII (receptor)
chain: ALPKAVVKLDPPWIQVLKEDMVTLMCEGTHNPGNSSTQWFHNGRSIRSQVQASYTFKATVNDSGEYRCQMEQTRLSDPVDLGVISDWLLLQTPQRVFLEGETITLRCHSWRNKLLNRISFFHNEKSVRYHHYKSNFSIPKANHSHSGDYYCKGSLGSTQHQSKPVTITVQDPATTSSISLVWYHT
modifications: soluble ectodomain by convention (UniProt topology); tag not stated

What was measured:
Assay in all cases: BLI
[1] = target: VIC16 REFORMab SDIEALGA (G236A/S239D/A330L/I332E) (mouse | human)
[2] = target: VIC16 REFORMab EFTEA (G236A/S267E/H268F/S324T/I332E) (mouse | human)
[3] = target: VIC16 REFORMab KWES (printed K236W/E333S) (mouse | human)
[4] = target: VIC16 REFORMab LALA (L234A/L235A) (mouse | human)

Row | Binder | Kd [1] [nM] | Kd [2] [nM] | Kd [3] [nM] | Kd [4] [nM]
1 | B1 | 130 | 490 | 46000 | –
2 | B2 | 1 | 120 | 160 | –
3 | B3 | 10 | 1100 | 20 | 820000
